Three substances from patent US20080038777A1 can be followed below.

The target in assay [1] is human C-C chemokine receptor 2B (human) (UniProt P41597). Description: cell-based or functional assay.
Assay [2] concerns the target dog-human chimeric C-C chemokine receptor 2B (dog-human chimera (synthetic)). Kind of assay: cell-based or functional assay.

Chain of human C-C chemokine receptor 2B (human) (P41597 whole entry): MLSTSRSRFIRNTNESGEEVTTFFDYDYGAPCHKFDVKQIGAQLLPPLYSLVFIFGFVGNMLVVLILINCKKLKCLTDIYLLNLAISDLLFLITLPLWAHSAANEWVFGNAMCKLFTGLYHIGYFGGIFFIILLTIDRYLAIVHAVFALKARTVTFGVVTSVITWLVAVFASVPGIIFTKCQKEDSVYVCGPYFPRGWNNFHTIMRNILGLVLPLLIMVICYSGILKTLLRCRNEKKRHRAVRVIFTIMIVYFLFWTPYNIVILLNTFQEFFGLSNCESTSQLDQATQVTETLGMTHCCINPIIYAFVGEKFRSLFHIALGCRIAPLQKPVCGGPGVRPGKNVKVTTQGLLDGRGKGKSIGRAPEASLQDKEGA
Chain of dog-human chimeric C-C chemokine receptor 2B (dog-human chimera (synthetic)) (chain, as listed by the source mutant limits assumed): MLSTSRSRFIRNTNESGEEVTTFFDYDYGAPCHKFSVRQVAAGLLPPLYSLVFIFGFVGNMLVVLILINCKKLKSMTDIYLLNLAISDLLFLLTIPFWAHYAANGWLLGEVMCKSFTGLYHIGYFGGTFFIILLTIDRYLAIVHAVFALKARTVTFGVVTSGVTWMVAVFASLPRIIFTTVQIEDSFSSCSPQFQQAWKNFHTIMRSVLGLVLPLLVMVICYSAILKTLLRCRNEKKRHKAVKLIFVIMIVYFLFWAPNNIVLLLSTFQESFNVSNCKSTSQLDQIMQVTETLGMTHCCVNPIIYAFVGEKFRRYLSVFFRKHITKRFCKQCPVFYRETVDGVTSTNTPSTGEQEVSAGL

For the substance “canine monocyte chemoattractant protein-1 (from UniProt P52203 24-101) (ligand)”, in assay [1], the EC50 of calcium mobilization (FLIPR), THP-1 cells came to 53 nM.

With “human monocyte chemoattractant protein-1 (from UniProt P13500 24-99) (ligand)”, in assay [1], the EC50 of MCP-1 signaling (calcium mobilization, FLIPR) in THP-1 cells was 3 nM and the calcium mobilization (FLIPR), THP-1 cells amounted to 8 nM. In assay [2], the EC50 of MCP-1-dependent calcium mobilization (FLIPR), CHO-K1 cells expressing the chimeric receptor was 1.5 nM.

In the case of “mouse monocyte chemoattractant protein-1 (from UniProt P10148 24-148) (ligand)”, the EC50 of calcium mobilization (FLIPR), THP-1 cells in assay [1] was 30 nM.
